Laboratory results taken from article PMC7355856 (2020).

Key:
α-synuclein [1] = biological target: T1, α-synuclein (human, UniProt P37840 1-140); test: SPR
α-synuclein [2] = biological target: T1, α-synuclein; test: SPR; remark: listed apart in the source

koff (α-synuclein [1]): 0.00118 s⁻¹
Kd (α-synuclein [2]): 5.32 nM
B1: prolyl oligopeptidase (POP) (enzyme)
chain: MLSLQYPDVYRDETAVQDYHGHKICDPYAWLEDPDSEQTKAFVEAQNKITVPFLEQCPIRGLYKERMTELYDYPKYSCHFKKGKRYFYFYNTGLQNQRVLYVQDSLEGEARVFLDPNILSDDGTVALRGYAFSEDGEYFAYGLSASGSDWVTIKFMKVDGAKELPDVLERVKFSCMAWTHDGKGMFYNSYPQQDGKSDGTETSTNLHQKLYYHVLGTDQSEDILCAEFPDEPKWMGGAELSDDGRYVLLSIREGCDPVNRLWYCDLQQESSGIAGILKWVKLIDNFEGEYDYVTNEGTVFTFKTNRQSPNYRVINIDFRDPEESKWKVLVPEHEKDVLEWIACVRSNFLVLCYLHDVKNILQLHDLTTGALLKTFPLDVGSIVGYSGQKKDTEIFYQFTSFLSPGIIYHCDLTKEELEPRVFREVTVKGIDASDYQTVQIFYPSKDGTKIPMFIVHKKGIKLDGSHPAFLYGYGGFNISITPNYSVSRLIFVRHMGGILAVANIRGGGEYGETWHKGGILANKQNCFDDFQCAAEYLIKEGYTSPKRLTINGGSNGGLLVAACANQRPDLFGCVIAQVGVMDMLKFHKYTIGHAWTTDYGCSDSKQHFEWLVKYSPLHNVKLPEADDIQYPSMLLLTADHDDRVVPLHSLKFIATLQYIVGRSRKQSNPLLIHVDTKAGHGAGKPTAKVIEEVSDMFAFIARCLNVDWIP
